Measurements as given in article PMC12527940, “Conformational plasticity of a BiP–GRP94 chaperone complex” (Nature Structural & Molecular Biology, 2025).
Where “and” joins values, the source holds several entries; their conditions need not be identical. Equal entries are not always repeated.

How the values were obtained:
[1] = molecular target: His6-tagged BiP (residues 27–655) (UniProt P20029); assay: pull-down; Ni-NTA pull-down of His6-tagged BiP protein (4 µM) with 4 µM Strep-tagged or untagged GRP94 protein; 60 min at 37 °C, 50 mM HEPES pH 7.5, 50 mM NaCl, 2 mM MgCl2, 50 µM ATP, 3 µM BSA; Coomassie bands quantified
[2] = molecular target: Strep–linker–TEV site–GRP94 (73–802) (UniProt P08113); assay: negative-stain EM; 16 µM BiP and 32 µM HT2 reacted with 32 µM HyT36, 30 min at 37 °C with 50 µM ATP, then 16 µM GRP94 Δ72; GraFix (5–45% glycerol, 0.5% glutaraldehyde), fraction 12; single-particle negative stain, models fitted with Rosetta at 20 Å
BiP-E243K = BiP-E243K (UniProt P20029); assay: pull-down; Ni-NTA pull-down of His6-tagged BiP protein (4 µM) with 4 µM Strep-tagged or untagged GRP94 protein; 60 min at 37 °C, 50 mM HEPES pH 7.5, 50 mM NaCl, 2 mM MgCl2, 50 µM ATP, 3 µM BSA; Coomassie bands quantified
[3] = molecular target: the molecule itself; assay: cross-linking; XL-MS: DSBU crosslinking (4 µM each), high-molecular-weight SDS–PAGE bands digested and analysed by LC–MS/MS, 5% FDR on residue pairs; GRP94 Δ72^noPT samples with 100 µM PU-WS13

“GRP94 Δ72^noPT (from UniProt P08113 73-802) (domain or fragment)” showed a percent reduction of GRP94 bound, against GRP94 Δ72 with its tag [1] of 65%.

“GRP94-K463E (Strep-tagged GRP94 Δ72 interface I mutant) (from UniProt P08113 73-802) (domain or fragment)” gave a percent reduction of GRP94 Δ72 copurified, against the wild-type pair [1] of 85%.

“GRP94-K467E (Strep-tagged GRP94 Δ72 interface I mutant) (from UniProt P08113 73-802) (domain or fragment)” showed a percent reduction of GRP94 Δ72 copurified, against the wild-type pair [1] of 85%.

With “His6-tagged BiP (residues 27–655) (from UniProt P20029 27-655) (natural protein)” the stoichiometry N (BiP per GRP94 dimer) [2] was 1 and 2.

Work on “Strep-tagged GRP94 Δ72-R116G interface II mutant (from UniProt P08113 73-802) (domain or fragment)” yielded a percent decrease of binding, against GRP94 Δ72 [1] of 30%.

Work on “Strep–linker–TEV site–GRP94 (73–802) (from UniProt P08113 73-802) (domain or fragment)” yielded a stoichiometry N [2] of 2 and a percent reduction of GRP94 Δ72 copurified, against the wild-type pair (BiP-E243K) of 85%.

B1: Strep-tagged GRP94 FL (residues 23–802) (natural protein, mouse (cDNA of C2C12 cells), UniProt P08113 23-802, looked up)
chain: DEVDVDGTVEEDLGKSREGSRTDDEVVQREEEAIQLDGLNASQIRELREKSEKFAFQAEVNRMMKLIINSLYKNKEIFLRELISNASDALDKIRLISLTDENALAGNEELTVKIKCDKEKNLLHVTDTGVGMTREELVKNLGTIAKSGTSEFLNKMTEAQEDGQSTSELIGQFGVGFYSAFLVADKVIVTSKHNNDTQHIWESDSNEFSVIADPRGNTLGRGTTITLVLKEEASDYLELDTIKNLVRKYSQFINFPIYVWSSKTETVEEPLEEDEAAKEEKEESDDEAAVEEEEEEKKPKTKKVEKTVWDWELMNDIKPIWQRPSKEVEEDEYKAFYKSFSKESDDPMAYIHFTAEGEVTFKSILFVPTSAPRGLFDEYGSKKSDYIKLYVRRVFITDDFHDMMPKYLNFVKGVVDSDDLPLNVSRETLQQHKLLKVIRKKLVRKTLDMIKKIADEKYNDTFWKEFGTNIKLGVIEDHSNRTRLAKLLRFQSSHHSTDITSLDQYVERMKEKQDKIYFMAGSSRKEAESSPFVERLLKKGYEVIYLTEPVDEYCIQALPEFDGKRFQNVAKEGVKFDESEKTKESREATEKEFEPLLNWMKDKALKDKIEKAVVSQRLTESPCALVASQYGWSGNMERIMKAQAYQTGKDISTNYYASQKKTFEINPRHPLIRDMLRRIKEDEDDKTVMDLAVVLFETATLRSGYLLPDTKAYGDRIERMLRLSLNIDPEAQVEEEPEEEPEDTSEDAEDSEQDEGEEMDAGTEEEEEETEKESTEKDEL
notes: cloned from C2C12 complementary DNA into pET21d; also called Strep–GRP94 FL; FL GRP94 wild-type protein; source: E. coli BL21(DE3), purified (StrepTrap HP, SEC); not shown: Strep, N-terminal, kept
For B1, the binding result [3] was “binds” and the percent less GRP94 pulled down, against GRP94 Δ72 [1] was 75%.
